± gives the uncertainty stated by the source.
B1: Triacylglycerol hydrolase DDHD2, residues 389 to 447; numbered along this chain, O94830 (parent)
chain: TLEEDLKKLQLSEFFDIFEKEKVDKEALALCTDRDLQEIGIPLGPRKKILNYFSTRKNS

Variants of: B1
Experiment: abundance fitness (aPCA) (normalised: wild type 0, dead -1); higher = more abundant; growth selection in yeast, the domain comes from the species named
Settings: Homo sapiens

Variant	abundance fitness
N51G	0.061 ± 0.07
N51H	-0.148 ± 0.12
L50W	-0.585 ± 0.1
L50A	-0.415 ± 0.089
L50N	-0.483 ± 0.17
A27N	0.263 ± 0.15
A27Q	0.475 ± 0.09
A27M	0.639 ± 0.094
A27H	0.357 ± 0.14
I49A	-0.244 ± 0.093
I49V	-0.215 ± 0.072
I49H	-0.07 ± 0.12
K20P	-0.591 ± 0.095
R56C	-0.065 ± 0.1
K48E	0.036 ± 0.1
E38F	-0.468 ± 0.093
E38Q	-0.161 ± 0.13
D5R	-0.568 ± 0.061
D5G	-0.536 ± 0.06
P45K	-0.285 ± 0.12
P45Q	0.188 ± 0.1
P45S	-0.032 ± 0.068
P45Y	-0.426 ± 0.084
P45T	-0.031 ± 0.081

Variant	abundance fitness
T55F	-0.482 ± 0.16
T55W	-0.295 ± 0.11
K7P	-0.689 ± 0.11
F15K	0.068 ± 0.097
F15M	-0.175 ± 0.098
F15R	-0.077 ± 0.063
F15Y	-0.114 ± 0.2
D35P	-0.937 ± 0.14
S12A	-0.023 ± 0.052
S12R	-0.274 ± 0.06
L36T	-0.298 ± 0.093
L36Q	-0.448 ± 0.12
L36F	-0.797 ± 0.15
L36V	-0.567 ± 0.073
L2M	0.041 ± 0.085
L2C	-0.621 ± 0.089
L2D	-0.468 ± 0.13
L2H	-0.818 ± 0.17
L2G	-0.607 ± 0.071
T1S	-0.232 ± 0.12
T1K	-0.425 ± 0.24
T1R	-0.331 ± 0.16
T1Y	0.138 ± 0.38
T1N	0.235 ± 0.29

Variant	abundance fitness
K47W	-0.368 ± 0.098
K47Q	0.492 ± 0.1
S59N	-0.569 ± 0.26
S59E	0.075 ± 0.18
S59R	-0.352 ± 0.11
S59C	-0.058 ± 0.13
S59A	-0.235 ± 0.1
N58P	-0.199 ± 0.11
Q37L	-0.343 ± 0.074
Q37T	-0.129 ± 0.089
E3N	-0.354 ± 0.12
E3Y	-0.162 ± 0.1
E3M	-0.002 ± 0.089
E3C	-0.748 ± 0.1
L11N	-1.02 ± 0.21
L11W	-1.12 ± 0.075
L11R	-0.996 ± 0.068
P42Q	-0.393 ± 0.099
P42T	-0.839 ± 0.11
I41W	-0.831 ± 0.11
I41S	-0.168 ± 0.08
I41Q	-0.144 ± 0.1
I41F	-0.888 ± 0.25
I41G	-0.323 ± 0.068

Variant	abundance fitness
I41P	-0.417 ± 0.15
I41Y	-0.689 ± 0.2
G44E	0.574 ± 0.079
G44N	0.041 ± 0.058
G44I	0.418 ± 0.052
G44M	0.06 ± 0.069
G44C	-0.176 ± 0.055
F18G	-0.644 ± 0.082
F18N	-0.197 ± 0.12
F18D	-0.399 ± 0.1
F18P	-0.035 ± 0.094
A29P	0.03 ± 0.091
A29S	0.106 ± 0.063
A29I	0.012 ± 0.11
F14M	-0.015 ± 0.085
F14C	-0.28 ± 0.11
C31T	0.145 ± 0.1
C31L	0.526 ± 0.065
C31I	0.035 ± 0.1
C31R	-0.188 ± 0.071
Y52V	-0.26 ± 0.066
Y52A	-0.08 ± 0.077
Y52W	-0.089 ± 0.075
Y52H	0.231 ± 0.14

Variant	abundance fitness
Y52R	-0.237 ± 0.059
Y52I	-0.387 ± 0.2
Y52K	-0.3 ± 0.094
D24H	-0.587 ± 0.26
D24V	-0.707 ± 0.12
D24K	-0.115 ± 0.097
D24A	0.026 ± 0.1
L30C	0.593 ± 0.078
L30M	0.483 ± 0.085
L30Q	0.238 ± 0.12
L30Y	0.164 ± 0.1
L30A	0.477 ± 0.078
L28W	-0.383 ± 0.092
L6N	-0.32 ± 0.37
L6W	-0.45 ± 0.11
L6A	-1.1 ± 0.11
L6E	-0.765 ± 0.12
L6K	-0.335 ± 0.15
L6H	-0.754 ± 0.46
E26H	0.153 ± 0.13
K22Q	-0.247 ± 0.11
K22W	-0.729 ± 0.13
K22C	-0.083 ± 0.09
E13T	-0.538 ± 0.15

Variant	abundance fitness
E13Y	-0.012 ± 0.22
E13V	-0.109 ± 0.088
V23M	0.773 ± 0.079
V23L	0.354 ± 0.067
V23P	-0.374 ± 0.11
R34Q	0.059 ± 0.1
R34A	0.216 ± 0.077
R34T	0.076 ± 0.082
R34W	-0.051 ± 0.092
K57Q	-0.076 ± 0.098
F53N	-0.073 ± 0.13
F53A	-0.282 ± 0.07
F53W	-0.38 ± 0.1
F53V	-0.363 ± 0.064
F53C	-0.029 ± 0.092
E21S	0.453 ± 0.064
E21H	0.155 ± 0.12
E21N	0.428 ± 0.13
E21I	0.245 ± 0.1
L43M	0.298 ± 0.076
L43E	0.725 ± 0.074
L43W	0.16 ± 0.082
D33L	-0.339 ± 0.069
D33Y	-0.498 ± 0.12

Variant	abundance fitness
D33A	-0.107 ± 0.075
T32A	-0.226 ± 0.086
T32I	-0.924 ± 0.14
T32V	-0.631 ± 0.082
T32K	0.083 ± 0.097
T32G	-0.337 ± 0.069
G40L	-1.01 ± 0.098
S54R	-0.122 ± 0.064
S54G	-0.113 ± 0.063
S54E	-0.033 ± 0.073
D16G	-0.088 ± 0.046
D16K	0.089 ± 0.077
I39Y	0.548 ± 0.1
I39V	-0.052 ± 0.07
I39K	0.196 ± 0.087
K25S	-0.088 ± 0.075
K25G	0.083 ± 0.059
Q10P	-0.863 ± 0.093
Q10H	-0.138 ± 0.13
Q10G	-0.131 ± 0.046
Q10I	-0.852 ± 0.34
R46K	-0.338 ± 0.14
R46N	-0.152 ± 0.11

— the Human Domainome abundance scans (Beltran et al. 2025)
